Our source for the stoichiometry N values is PMC5000598.

For test [1], the target named is LZ-EGFR-GFP (chimeric EGFR with the extracellular domain replaced by the c-Fos leucine zipper, GFP at the C-terminus) (UniProt P01100). In words: SDS-resistant dimer on SDS-PAGE immunoblot; total Triton X-100 lysates of transfected 293T cells boiled in SDS-loading buffer with beta-mercaptoethanol, no cross-linker; immunoblot with anti-pEGFR antibodies.
For test [2] the target is unchanged. In words: cross-linking; homogenates of transiently transfected 293T cells in PBS, 6 mM DSS, 30 min at room temperature, quenched with 250 mM glycine; membrane pellet lysed, SDS-PAGE, immunoblot with anti-EGFR and anti-GFP; EGFR-GFP cells stimulated with EGF (100 ng/mL, 30 min).

On to “LZ-EGFR-GFP (chimeric EGFR with the extracellular domain replaced by the c-Fos leucine zipper, GFP at the C-terminus) (from UniProt P01100 160-200; P00533 623-1210) (receptor)”, for which the stoichiometry N in test [1] and in test [2] was 2 throughout.
